Consider 1 molecule from PMC3000613 (Biochemistry, 2010).

What is called Kd is the constant that tells how readily two partners part at equilibrium. Low values mean higher affinity, high ones lower affinity. The term koff denotes a measure of how fast the partners let go of each other. The low end stands for slow dissociation, the high end for fast dissociation. One may read the kon as the second-order rate constant of association.

The target in one assay is GST-Obsc_(6316–6345) (rat). Description: SPR.
A further assay addresses T1, GST-Obsc_(6231–6260) (rat).
T1 chain: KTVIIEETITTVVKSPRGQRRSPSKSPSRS
Description: SPR. In general terms: In SPR one partner is held on a chip, and binding of the other changes the refractive index at the surface.

B1: MBP-sAnk1_(29–155) (domain or fragment)
chain: VKGSLCFVLKHIHQELDKELGESEGLSDDEETISTRVVRRRVFLKGDELQNIPGEQVTEEQFTDEQGNIVTKKIIRKVVRQVDSSGAIDTQQHEEVELRGSGLQPDLIEGRKGAQIVKRASLKRGKQ
In the assay with GST-Obsc_(6316–6345), B1 yielded a Kd of 133 nM, a koff of 0.000792 s⁻¹ and an on-rate (kon) of 6290 M⁻¹ s⁻¹. This molecule displayed a Kd in the assay with GST-Obsc_(6231–6260) of 384 ± 53 nM.
